To fix the notation:
B1: Rab32FL:GDP (full-length Rab32, residues 1-225, GDP-bound) (natural protein)
chain: MAGGGAGDPGLGAAAAPAPETREHLFKVLVIGELGVGKTSIIKRYVHQLFSQHYRATIGVDFALKVLNWDSRTLVRLQLWDIAGQERFGNMTRVYYKEAVGAFVVFDISRSSTFEAVLKWKSDLDSKVHLPNGSPIPAVLLANKCDQNKDSSQSPSQVDQFCKEHGFAGWFETSAKDNINIEEAARFLVEKILVNHQSFPNEENDVDKIKLDQETLRAENKSQCC
notes: also called Rab32:GDP; Rab32_(1-225); source: E. coli BL21(DE3)-RIL, purified (Ni-IMAC, TEV cleavage, second IMAC, SEC)
B3: GtgE_(FL,C45A) (full-length catalytically inactive GtgE, residues 1-228) (enzyme)
chain: MLRHIQNSLGSVYRSNTATPQGQIIHHRNFQSQFDTTGNTLYNNAWVCSLNVIKSRDGNNYSALEDITSDNQAFNNILEGIDIIECENLLKEMNVQKIPESSLFTNIKEALQAEVFNSTVEDDFESFISYELQNHGPLMLIRPSLGSECLHAECIVGYDSEVKKVLIYDSMNTSPEWQSNIDVYDKLTLAFNDKYKNEDCSICGLYYDGVYEPKPLHSSSWKDWCTIL
notes: source: E. coli BL21(DE3)-RIL, purified (Ni-IMAC, TEV cleavage, second IMAC)

One assay concerns the target T1, Rab32FL (Homo sapiens, UniProt Q13637).
T1 construct: gene RAB32; full length, E. coli, N-terminal His6-MBP tag cut by TEV, monomer by SEC
T1 sequence (Q13637 1-225): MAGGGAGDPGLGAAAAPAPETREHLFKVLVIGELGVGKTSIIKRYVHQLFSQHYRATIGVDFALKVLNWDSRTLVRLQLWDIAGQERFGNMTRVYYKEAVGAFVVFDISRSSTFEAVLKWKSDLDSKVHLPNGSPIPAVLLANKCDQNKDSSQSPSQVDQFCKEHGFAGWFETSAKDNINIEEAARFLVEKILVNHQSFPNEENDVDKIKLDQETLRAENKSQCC
Briefly: intrinsic GTP hydrolysis, ion-pairing RP-HPLC of nucleotide content. Type of assay: biochemical. The note with it: intrinsic GTPase, no GAP; single-exponential fit.

The target in assay [1] is T2, Rab32_1-225:GDP:GtgE1-228,C45A complex (Homo sapiens, UniProt Q13637).
T2 construct: gene RAB32; full-length Rab32 and full-length GtgE C45A, E. coli, His6-MBP tag cut by TEV, reductively lysine-methylated complex, 1:1 heterodimer; with Cysteine protease GtgE (Salmonella enterica serovar Typhimurium SL1344)
Briefly: X-ray crystallography, […] Å. The note with it: nucleotide site of Rab32; crystals from 0.05 M imidazole pH 8, 20% PEG 6000. Type of assay: binding.

Assay [2] concerns the target B3. The assay is described as follows: ITC. The note with it: both partners purified.
Assay [3] concerns the target B3. The assay is described as follows: AUC. The following applies: both partners purified.
In assay [4] the target is B1. Briefly: ITC. The note with it: both partners purified.
Assay [5] has as its target T3, GtgE_(21-214,C45A) (truncated inactive GtgE, lysine-methylated, for crystallization) (Salmonella enterica serovar Typhimurium …, UniProt Q6EAT3 21-214, C45A, surface exposed lysine residues reductively methylated).
T3 construct: source: E. coli BL21(DE3)-RIL, purified; complex reductively methylated
T3 sequence: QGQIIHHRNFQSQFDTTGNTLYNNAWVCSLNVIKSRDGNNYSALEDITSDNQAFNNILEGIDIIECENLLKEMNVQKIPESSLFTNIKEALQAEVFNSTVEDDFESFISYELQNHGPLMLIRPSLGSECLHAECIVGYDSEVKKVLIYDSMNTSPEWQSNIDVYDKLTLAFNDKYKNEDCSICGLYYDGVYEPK
Briefly: crystal structure. The following applies: both partners purified.

Data on 6 molecules can be found in PMC5752668 (Nature Communications, 2018).

T2 sequence (Q6EAT3 entry or part of it C45A, one chain of several): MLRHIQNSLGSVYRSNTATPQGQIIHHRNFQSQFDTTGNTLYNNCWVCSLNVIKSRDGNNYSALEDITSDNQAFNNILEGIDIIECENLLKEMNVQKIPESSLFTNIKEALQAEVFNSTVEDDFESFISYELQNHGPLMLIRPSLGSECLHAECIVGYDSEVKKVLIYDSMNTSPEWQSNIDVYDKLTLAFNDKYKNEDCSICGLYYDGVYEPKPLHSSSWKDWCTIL

On to `Nc1nc2c(ncn2[C@@H]2O[C@H](COP(=O)(O)OP(=O)(O)OP(=O)(O)O)[C@@H](O)[C@H]2O)c(=O)[nH]1` [GTP], for which the k hydr entry at Rab32FL is reported as “Rab32 has an exceptionally slow intrinsic GTPase-activity with an hydrolysis constant determined”. `Nc1nc2c(ncn2[C@@H]2O[C@H](COP(=O)(O)OP(=O)(O)O)[C@@H](O)[C@H]2O)c(=O)[nH]1` [GDP]: in assay [1], the “X-ray crystallography, 2.9 Å” value is reported as “The full-length Rab32:GDP:GtgEC45A structure was solved by molecular replacement”.

What is called Kd is the equilibrium constant for the complex coming apart. A high value points to weaker binding. B1 returned a Kd in assay [2] of 96 nM.

B2: Rab32FL-Atto488 (Rab32:GDP labelled at thiol groups with Atto488-Maleimide) (natural protein)
chain: MAGGGAGDPGLGAAAAPAPETREHLFKVLVIGELGVGKTSIIKRYVHQLFSQHYRATIGVDFALKVLNWDSRTLVRLQLWDIAGQERFGNMTRVYYKEAVGAFVVFDISRSSTFEAVLKWKSDLDSKVHLPNGSPIPAVLLANKCDQNKDSSQSPSQVDQFCKEHGFAGWFETSAKDNINIEEAARFLVEKILVNHQSFPNEENDVDKIKLDQETLRAENKSQCC
modifications: thiol groups covalently labeled with Atto488-Maleimide
notes: also called Rab32:GDP_(fluor.); fluorescently labeled Rab32FL:GDP; source: E. coli BL21(DE3)-RIL, purified, then labelled with Atto488-Maleimide
Consider B2, for which, in assay [3], the Kd amounted to 118 nM. The stoichiometry N is the number of molecules, sites or subunits per partner or assembly. B3: in assay [4], the “stoichiometry N” value was found to be 1.

B4: Rab32_(18-201):GDP (truncated Rab32, lysine-methylated, for crystallization) (domain or fragment)
chain: APETREHLFKVLVIGELGVGKTSIIKRYVHQLFSQHYRATIGVDFALKVLNWDSRTLVRLQLWDIAGQERFGNMTRVYYKEAVGAFVVFDISRSSTFEAVLKWKSDLDSKVHLPNGSPIPAVLLANKCDQNKDSSQSPSQVDQFCKEHGFAGWFETSAKDNINIEEAARFLVEKILVNHQSFPN
notes: source: E. coli BL21(DE3)-RIL, purified; complex reductively methylated
For B4, the binding result in assay [5] is reported as “binds”.
